Measurements from US20070099283.

Target: T1, propeptide (prosequence) of proteinase K from Tritirachium album Limber
T1 chain: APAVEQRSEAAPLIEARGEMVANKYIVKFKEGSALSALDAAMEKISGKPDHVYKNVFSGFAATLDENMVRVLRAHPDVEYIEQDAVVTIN

B1: mature recombinant proteinase K from Tritirachium album Limber (processed, natured from pro-proteinase K) (protein)
chain: AAQTNAPWGLARISSTSPGTSTYYYDESAGQGSCVYVIDTGIEASHPEFEGRAQMVKTYYYSSRDGNGHGTHCAGTVGSRTYGVAKKTQLFGVKVLDDNGSGQYSTIIAGMDFVASDKNNRNCPKGVVASLSLGGGYSSSVNSAAARLQSSGVMVAVAAGNNNADARNYSPASEPSVCTVGASDRYDRRSSFSNYGSVLDIFGPGTSILSTWIGGSTRSISGTSMATPHVAGLAAYLMTLGKTTAASACRYIADTANKGDLSNIPFGTVNLLAYNNYQA
proteinase K activity (chromogenic substrate test) of gel filtration fractions: no activity is found without prior activation
